Experimental data reported in patent publication US20080207501A1.
Values belong to the substance of their own block, whether it stands above or below them.

Key:
Amylin RBA (rat) = Amylin RBA (rat) (UniProt P32214); assay: radioligand binding assay (displacement of radiolabeled amylin)
CGRP RBA = CGRP RBA (UniProt Q16602); assay: radioligand binding assay (displacement of radiolabeled CGRP)
[1] = target: calcitonin receptor of CHO cells; assay: cell-based or functional assay
[2] = target: T1, calcitonin receptor of T47D cells (UniProt P30988); assay: cell-based or functional assay
T1 sequence (looked up): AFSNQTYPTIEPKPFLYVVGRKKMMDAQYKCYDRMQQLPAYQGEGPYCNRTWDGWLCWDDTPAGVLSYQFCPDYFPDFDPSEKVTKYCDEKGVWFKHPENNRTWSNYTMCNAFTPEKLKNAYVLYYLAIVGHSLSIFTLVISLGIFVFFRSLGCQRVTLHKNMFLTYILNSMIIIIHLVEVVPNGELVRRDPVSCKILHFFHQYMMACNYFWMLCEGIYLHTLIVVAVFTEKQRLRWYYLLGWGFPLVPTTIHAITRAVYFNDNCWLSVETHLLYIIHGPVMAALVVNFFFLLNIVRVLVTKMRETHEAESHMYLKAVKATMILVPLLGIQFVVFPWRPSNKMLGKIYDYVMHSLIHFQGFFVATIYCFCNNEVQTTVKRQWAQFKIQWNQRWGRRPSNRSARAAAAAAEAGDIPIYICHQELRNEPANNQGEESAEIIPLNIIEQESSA

[3] = target: CGRP receptor (membranes prepared from SK-N-MC cells) (UniProt Q16602); assay: radioligand displacement, 125I-hCGRP, SK-N-MC cell membranes
Sequence of CGRP receptor (membranes prepared from SK-N-MC cells) (Q16602 23-461 limits assumed, chain 1 of 2): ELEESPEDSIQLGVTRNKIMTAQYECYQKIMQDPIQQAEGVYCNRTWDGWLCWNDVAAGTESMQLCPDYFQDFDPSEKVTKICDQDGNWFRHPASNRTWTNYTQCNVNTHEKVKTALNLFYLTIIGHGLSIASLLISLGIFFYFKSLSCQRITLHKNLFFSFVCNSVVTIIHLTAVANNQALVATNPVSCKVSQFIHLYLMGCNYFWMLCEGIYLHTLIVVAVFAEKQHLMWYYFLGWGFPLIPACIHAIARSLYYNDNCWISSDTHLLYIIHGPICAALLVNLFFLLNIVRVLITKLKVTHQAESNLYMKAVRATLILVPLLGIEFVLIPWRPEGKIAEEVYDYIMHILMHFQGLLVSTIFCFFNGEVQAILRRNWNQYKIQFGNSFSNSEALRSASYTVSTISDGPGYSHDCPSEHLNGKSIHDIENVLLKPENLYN
Sequence of CGRP receptor (membranes prepared from SK-N-MC cells) (O60894 27-148 limits assumed, chain 2 of 2, further chain): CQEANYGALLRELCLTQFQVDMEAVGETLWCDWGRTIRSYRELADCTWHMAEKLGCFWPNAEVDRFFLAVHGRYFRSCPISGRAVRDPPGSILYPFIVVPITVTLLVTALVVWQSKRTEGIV

[4] = target: calcitonin receptor (receptor binding assay); assay: rCalcitonin RBA, method not described

Sequence of Amylin RBA (rat) (P32214 other isoform, or with tags, fused parts or gaps, chain 1 of 2): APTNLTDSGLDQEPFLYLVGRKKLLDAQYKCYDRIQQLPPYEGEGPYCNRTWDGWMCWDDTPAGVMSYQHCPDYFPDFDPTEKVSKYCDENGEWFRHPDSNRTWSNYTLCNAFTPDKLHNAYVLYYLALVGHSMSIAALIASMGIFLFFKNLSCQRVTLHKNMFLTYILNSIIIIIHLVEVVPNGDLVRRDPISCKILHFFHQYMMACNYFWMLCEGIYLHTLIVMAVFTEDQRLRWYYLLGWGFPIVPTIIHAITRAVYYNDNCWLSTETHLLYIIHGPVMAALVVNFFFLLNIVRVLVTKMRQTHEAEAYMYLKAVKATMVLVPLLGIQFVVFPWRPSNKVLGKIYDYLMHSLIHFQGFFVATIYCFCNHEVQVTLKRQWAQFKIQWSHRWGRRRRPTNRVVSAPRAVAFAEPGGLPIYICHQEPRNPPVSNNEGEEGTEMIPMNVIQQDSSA
Sequence of Amylin RBA (rat) (Q9JJ74 27-148, chain 2 of 2, further chain): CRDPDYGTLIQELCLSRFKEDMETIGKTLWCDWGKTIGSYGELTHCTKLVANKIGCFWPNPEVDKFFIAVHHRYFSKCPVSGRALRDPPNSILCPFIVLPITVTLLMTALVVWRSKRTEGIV
Sequence of CGRP RBA (Q16602 23-461, chain 1 of 2): as the sequence (Q16602 23-461 limits assumed, chain 1 of 2) above
Sequence of CGRP RBA (O60894 27-148, chain 2 of 2, further chain): as the sequence (O60894 27-148 limits assumed, chain 2 of 2, further chain) above

EC50 (Amylin RBA (rat)): > 100 nM
Substance: AFP-6 (1-31)

EC50 (CGRP RBA): 277 nM
Substance: AFP-6 [1-31]

EC50, cAMP (AlphaScreen), CHO cells, Average [1]: 80.4 nM | EC50, cAMP (AlphaScreen), CHO cells, Experiment 1 [1]: 70.3 nM | EC50, cAMP (AlphaScreen), CHO cells, Experiment 2 [1]: 81.2 nM | EC50, cAMP (AlphaScreen), CHO cells, Experiment 3 [1]: 89.7 nM | EC50, cAMP (AlphaScreen), T47D cells, Average [2]: 35.5 nM | EC50, cAMP (AlphaScreen), T47D cells, Experiment 1 [2]: 11.9 nM | EC50, cAMP (AlphaScreen), T47D cells, Experiment 2 [2]: 66.7 nM | EC50, cAMP (AlphaScreen), T47D cells, Experiment 3 [2]: 27.8 nM
Substance: Human CGRP α (peptide)

IC50 [3]: 12 nM
Substance: r/h Amylin (from UniProt P12969 38-74) (peptide)

IC50 [4]: 1.3 to 3.4 nM
Substance: r/h Calcitonin (peptide)
